Data published in patent US20240409659A1.

How the values were obtained:
Human FcRn (human) = Human FcRn (human) (UniProt P55899)
Human FcγRIIB (human) = Human FcγRIIB (human) (UniProt P31994)
Human FcγRI (human) = Human FcγRI (human) (UniProt P12314)
Human FcγRIIA (human) = Human FcγRIIA (human) (UniProt P12318)
Human FcγRIIIB (human) = Human FcγRIIIB (human) (UniProt O75015)
[1] = molecular target: Human FcγRIIIA-F158 (human) (UniProt P08637)

kon (Human FcRn (human)): 1.98e+06 M⁻¹ s⁻¹ | kon (Human FcγRIIB (human)): 124000 M⁻¹ s⁻¹ | kon (Human FcγRI (human)): 289000 M⁻¹ s⁻¹ | kon (Human FcγRIIA (human)): 300000 M⁻¹ s⁻¹ | kon (Human FcγRIIIB (human)): 128000 M⁻¹ s⁻¹ | kon [1]: 880000 M⁻¹ s⁻¹
Substance: control IgG (7101+7103) (antibody)
